In the Human Domainome abundance scans (Beltran et al. 2025) one finds abundance fitness data, which are given here for 108 variants.

To fix the notation:
B1: E3 ubiquitin-protein ligase NEDD4-like, residues 539 to 589; numbered along this chain, Q96PU5 (parent)
chain: KTSLNPNDLGPLPPGWEERIHLDGRTFYIDHNSKITQWEDPRLQNPAITGP
B2: Glucocorticoid receptor, residues 419 to 494; numbered along this chain, P04150 (parent)
chain: KLCLVCSDEASGCHYGVLTCGSCKVFFKRAVEGQHNYLCAGRNDCIIDKIRRKNCPACRYRKCLQAGMNLEARKTK

± gives the uncertainty stated by the source.

One data set covers variants of B1. Description: abundance fitness (aPCA) (normalised: wild type 0, dead -1); higher = more abundant; growth selection in yeast, the domain comes from the species named. The conditions noted are these: Homo sapiens.
On to D23Y, for which the abundance fitness is -0.715 ± 0.054.
Same read-out and setting: the result for D23M reads -0.5 ± 0.056; that for R42N, -0.687 ± 0.22; that for P6S, 0.156 ± 0.057.
Same read-out and setting: the same measure for P6M: 0.112 ± 0.088; for P41S: -0.827 ± 0.063; for P41I: -1.28 ± 0.13.
The same measure, in the same setting: the result for P41C reads -0.672 ± 0.12; that for P41A, -0.947 ± 0.078; that for P41W, -1.11 ± 0.067.
For the variant T49A, the abundance fitness was -0.121 ± 0.059.
On the same count and under the same terms, the same measure for T49Y: -0.286 ± 0.093; for T49G: -0.045 ± 0.054.
Same read-out and setting: the same measure for K34G: -0.022 ± 0.044; for K34L: -0.284 ± 0.053; for P46W: -0.249 ± 0.069.
Still for that read-out and setting: the result for I20P reads -0.226 ± 0.1; that for I20A, -0.069 ± 0.048; that for I20R, -0.006 ± 0.065.
For H21A, the abundance fitness was found to be 0.102 ± 0.062.
On the same count and under the same terms, the same measure for H21D: 0.101 ± 0.053.
The same measure, in the same setting: the same measure for N32M: -0.164 ± 0.063.
Still for that read-out and setting: the same measure for H31A: -0.174 ± 0.052; for S3K: -0.264 ± 0.08; for L43P: -0.089 ± 0.079.
On to L43F, for which the abundance fitness is -0.104 ± 0.087.
Still for that read-out and setting: the same measure for L43T: -0.069 ± 0.066; for E18R: -0.159 ± 0.061; for E18I: -0.796 ± 0.16.
On the same count and under the same terms, the same measure for E18P: -0.48 ± 0.048.
The same measure, in the same setting: the same measure for G10L: -0.429 ± 0.043.
Regarding G10S, the abundance fitness is -0.268 ± 0.059.
On the same count and under the same terms, the same measure for G10K: -0.238 ± 0.078; for G10V: -0.181 ± 0.045.
Same read-out and setting: the same measure for G10P: -0.347 ± 0.046; for D8A: -0.138 ± 0.057.
Still for that read-out and setting: the same measure for T36W: -0.491 ± 0.056; for I35N: -0.042 ± 0.091; for I35V: -0.163 ± 0.058.
I35T: the abundance fitness was found to be 0.04 ± 0.059.
On the same count and under the same terms, the same measure for E39T: -0.105 ± 0.084; for E39N: -0.009 ± 0.076.
Turning to I48Q, the abundance fitness was found to be 1.1 ± 0.46.
For the variant I48V, the abundance fitness worked out at 0.132 ± 0.31.
The same measure, in the same setting: the result for I48G reads 0.025 ± 0.054; that for P14F, -0.066 ± 0.091.
Regarding P14E, the abundance fitness is 0.009 ± 0.048.
The same measure, in the same setting: the result for Q37E reads -0.742 ± 0.059; that for Q37M, -0.231 ± 0.079.
Turning to L12G, the abundance fitness was -1.2 ± 0.044.
On to Y28M, for which the abundance fitness is -0.991 ± 0.12.
On the same count and under the same terms, the result for Y28V reads -0.696 ± 0.054.
Same read-out and setting: the same measure for Y28Q: -0.424 ± 0.088; for N45R: 0.003 ± 0.059.
The same measure, in the same setting: the same measure for N45M: -0.163 ± 0.083; for T26W: -0.645 ± 0.065; for T26K: 0.056 ± 0.052.
Regarding T26E, the abundance fitness is -0.403 ± 0.051.
As to R19D, the abundance fitness is -0.421 ± 0.078.
R19S: the abundance fitness was -0.132 ± 0.066.
On the same count and under the same terms, the result for R19C reads -0.138 ± 0.047; that for R25C, -0.393 ± 0.042; that for R25M, -0.48 ± 0.048.
On the same count and under the same terms, the same measure for E17V: -0.477 ± 0.065; for E17P: -0.877 ± 0.19; for E17A: -0.705 ± 0.051.
The same measure, in the same setting: the result for E17H reads -0.157 ± 0.12.
With A47Q, the abundance fitness worked out at 0.193 ± 0.083.
The same measure, in the same setting: the result for A47W reads -0.296 ± 0.055; that for G50K, 0.305 ± 0.45.
Same read-out and setting: the same measure for D30K: -0.369 ± 0.089; for D30T: -0.716 ± 0.056; for W38E: 0.068 ± 0.056.
On the same count and under the same terms, the same measure for W38N: -0.059 ± 0.048.
Regarding W38Y, the abundance fitness was -0.041 ± 0.047.
Still for that read-out and setting: the same measure for Q44V: -0.114 ± 0.05; for Q44A: -0.028 ± 0.072; for Q44F: -0.218 ± 0.079.
The same measure, in the same setting: the result for Q44P reads -0.135 ± 0.054.
The same measure, in the same setting: the result for G15T reads -0.526 ± 0.065.
Consider W16I, for which the abundance fitness was -0.684 ± 0.1.
Regarding W16N, the abundance fitness is -0.222 ± 0.1.
Still for that read-out and setting: the result for P13V reads -1.1 ± 0.082; that for P11V, -0.221 ± 0.044.
On the same count and under the same terms, the same measure for N5I: -0.256 ± 0.12.
As for F27G, the abundance fitness is -0.197 ± 0.047.
The same measure, in the same setting: the result for F27N reads -0.201 ± 0.1; that for F27T, -0.089 ± 0.065.
The same measure, in the same setting: the same measure for F27L: -0.039 ± 0.047; for F27R: -0.163 ± 0.046.
With L22C, the abundance fitness was -0.219 ± 0.088.

The variants in a further data set derive from B2. The data set is described as above. To be noted: Homo sapiens.
As for ELCLVCSDEASGCHYGVLTCGSCKVFFKRAVEGQHNYLCAGRNDCIIDKIRRKNCPACRYRKCLQAGMNLEARKTK [K1E], the abundance fitness was -0.048 ± 0.054.
On the same count and under the same terms, the result for HLCLVCSDEASGCHYGVLTCGSCKVFFKRAVEGQHNYLCAGRNDCIIDKIRRKNCPACRYRKCLQAGMNLEARKTK [K1H] reads -0.304 ± 0.12; that for GLCLVCSDEASGCHYGVLTCGSCKVFFKRAVEGQHNYLCAGRNDCIIDKIRRKNCPACRYRKCLQAGMNLEARKTK [K1G], -0.123 ± 0.047.
As to DLCLVCSDEASGCHYGVLTCGSCKVFFKRAVEGQHNYLCAGRNDCIIDKIRRKNCPACRYRKCLQAGMNLEARKTK [K1D], the abundance fitness is -0.002 ± 0.083.
Same read-out and setting: the same measure for RLCLVCSDEASGCHYGVLTCGSCKVFFKRAVEGQHNYLCAGRNDCIIDKIRRKNCPACRYRKCLQAGMNLEARKTK [K1R]: -0.141 ± 0.043.
Same read-out and setting: the result for QLCLVCSDEASGCHYGVLTCGSCKVFFKRAVEGQHNYLCAGRNDCIIDKIRRKNCPACRYRKCLQAGMNLEARKTK [K1Q] reads -0.293 ± 0.064; that for TLCLVCSDEASGCHYGVLTCGSCKVFFKRAVEGQHNYLCAGRNDCIIDKIRRKNCPACRYRKCLQAGMNLEARKTK [K1T], -0.324 ± 0.062.
As to ILCLVCSDEASGCHYGVLTCGSCKVFFKRAVEGQHNYLCAGRNDCIIDKIRRKNCPACRYRKCLQAGMNLEARKTK [K1I], the abundance fitness was -0.143 ± 0.1.
Same read-out and setting: the same measure for YLCLVCSDEASGCHYGVLTCGSCKVFFKRAVEGQHNYLCAGRNDCIIDKIRRKNCPACRYRKCLQAGMNLEARKTK [K1Y]: -0.101 ± 0.083.
Consider SLCLVCSDEASGCHYGVLTCGSCKVFFKRAVEGQHNYLCAGRNDCIIDKIRRKNCPACRYRKCLQAGMNLEARKTK [K1S], for which the abundance fitness was -0.062 ± 0.063.
The same measure, in the same setting: the same measure for WLCLVCSDEASGCHYGVLTCGSCKVFFKRAVEGQHNYLCAGRNDCIIDKIRRKNCPACRYRKCLQAGMNLEARKTK [K1W]: -0.301 ± 0.068; for LLCLVCSDEASGCHYGVLTCGSCKVFFKRAVEGQHNYLCAGRNDCIIDKIRRKNCPACRYRKCLQAGMNLEARKTK [K1L]: -0.236 ± 0.058; for MLCLVCSDEASGCHYGVLTCGSCKVFFKRAVEGQHNYLCAGRNDCIIDKIRRKNCPACRYRKCLQAGMNLEARKTK [K1M]: 0.046 ± 0.046.
With NLCLVCSDEASGCHYGVLTCGSCKVFFKRAVEGQHNYLCAGRNDCIIDKIRRKNCPACRYRKCLQAGMNLEARKTK [K1N], the abundance fitness was -0.12 ± 0.088.
Same read-out and setting: the result for CLCLVCSDEASGCHYGVLTCGSCKVFFKRAVEGQHNYLCAGRNDCIIDKIRRKNCPACRYRKCLQAGMNLEARKTK [K1C] reads -0.14 ± 0.1.
Turning to ALCLVCSDEASGCHYGVLTCGSCKVFFKRAVEGQHNYLCAGRNDCIIDKIRRKNCPACRYRKCLQAGMNLEARKTK [K1A], the abundance fitness is -0.066 ± 0.055.
Same read-out and setting: the same measure for KACLVCSDEASGCHYGVLTCGSCKVFFKRAVEGQHNYLCAGRNDCIIDKIRRKNCPACRYRKCLQAGMNLEARKTK [L2A]: 0.056 ± 0.035.
